Measured values as given in article PMC5986797, “Laminin heparin-binding peptides bind to several growth factors and enhance diabetic wound healing” (Nature Communications, 2018).

T1: recombinant human syndecan-1 (human, UniProt P18827 23-254)
T1 construct: syndecan-1, human, recombinant; probably the extracellular domain; source: bought: SinoBiological
T1 sequence (looked up): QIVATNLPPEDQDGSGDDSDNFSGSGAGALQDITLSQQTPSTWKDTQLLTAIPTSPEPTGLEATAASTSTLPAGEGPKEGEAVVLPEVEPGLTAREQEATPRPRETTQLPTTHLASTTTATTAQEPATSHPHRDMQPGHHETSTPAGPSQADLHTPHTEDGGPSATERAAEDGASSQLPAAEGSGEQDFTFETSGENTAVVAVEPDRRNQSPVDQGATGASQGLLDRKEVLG

T2: recombinant human syndecan-4 (human, UniProt P31431 19-145)
T2 construct: syndecan-4, human, recombinant; probably the extracellular domain; source: bought: SinoBiological
T2 sequence (looked up): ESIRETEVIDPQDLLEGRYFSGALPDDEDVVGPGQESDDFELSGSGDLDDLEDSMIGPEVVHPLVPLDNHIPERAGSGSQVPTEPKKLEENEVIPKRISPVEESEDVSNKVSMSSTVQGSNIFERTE

T3: recombinant laminin LAMA3_(2928–3150) protein (human, UniProt Q16787 2928-3150)
T3 construct: laminin subunit alpha-3, human, LG domain Ser2928-Cys3150 (linker domain and LG4 domain); also called laminin alpha 3 LG domain recombinant protein; source: HEK-293F, transfected, purified from culture medium (HisTrap, size-exclusion chromatography)
T3 sequence (looked up): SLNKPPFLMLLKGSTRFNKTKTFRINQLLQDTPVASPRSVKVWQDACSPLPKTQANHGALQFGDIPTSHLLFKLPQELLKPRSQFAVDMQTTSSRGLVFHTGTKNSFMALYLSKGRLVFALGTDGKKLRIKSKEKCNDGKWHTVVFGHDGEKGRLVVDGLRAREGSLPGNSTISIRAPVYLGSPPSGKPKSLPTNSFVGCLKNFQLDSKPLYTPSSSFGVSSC

B1: placental growth factor (PlGF)-2 (ligand, human, UniProt P49763-3 19-170, looked up)
chain: LPAVPPQQWALSAGNGSSEVEVVPFQEVWGRSYCRALERLVDVVSEYPSEVEHMFSPSCVSLLRCTGCCGDENLHCVPVETANVTMQLLKIRSGDRPSYVELTFSQHVRCECRPLREKMKPERRRPKGRGKRRREKQRPTDCHLCGDAVPRR
notes: placenta growth factor, form PlGF-2, human, bought in its mature form; source: bought: PeproTech; produced in Escherichia coli

How the values were obtained:
Details in all cases: both partners purified
[1] = target: B1; assay: ELISA; plates coated with laminin peptide (10 µg/mL by the legend, 1 μg/mL by the methods); 1 μg/mL GF added; bound GF detected with an antibody for each GF; BSA-coated wells as control
[2] = target: T1, recombinant human syndecan-1; assay: ELISA; plates coated with laminin peptide (10 µg/mL by the legend, 1 μg/mL by the methods); 1 μg/mL His-tagged syndecan added; detected with anti-histidine tag antibody; BSA-coated wells as control
[3] = target: T4, recombinant human syndecan-2 (human, UniProt P34741 19-144); assay: as above
T4 construct: syndecan-2, human, recombinant; probably the extracellular domain; source: bought: SinoBiological

[4] = target: T2, recombinant human syndecan-4; assay: as above
[5] = target: T5, recombinant human laminin-111 (human, UniProt P25391 18-3075; P07942 22-1786; P11047 34-1609); assay: ELISA; plates coated with 50 nM GF or chemokine in PBS; 10 nM laminin isoform in PBS added; bound laminin detected with anti-LAMC1 or anti-LAMA3 polyclonal antibody; A450 signals greater than 0.1 taken as binding; BSA-coated wells as control
T5 construct: laminin subunit alpha-1, human; chain told by the isoform's name; laminin subunit beta-1, human; laminin subunit gamma-1, human; source: bought: BioLamina (recombinant human, >95% purity); copies: + +

[6] = target: T6, recombinant human laminin-211 (human, UniProt P24043 23-3122; P07942 22-1786; P11047 34-1609); assay: as above
T6 construct: laminin subunit alpha-2, human; chain told by the isoform's name; laminin subunit beta-1, human; laminin subunit gamma-1, human; source: bought: BioLamina (recombinant human, >95% purity); copies: + +

[7] = target: T7, recombinant human laminin-511 (human, UniProt O15230 36-3695; P07942 22-1786; P11047 34-1609); assay: as above
T7 construct: laminin subunit alpha-5, human; chain told by the isoform's name; laminin subunit beta-1, human; laminin subunit gamma-1, human; source: bought: BioLamina (recombinant human, >95% purity); copies: + +

[8] = target: T8, recombinant human laminin-521 (human, UniProt O15230 36-3695; P55268 33-1798; P11047 34-1609); assay: as above
T8 construct: laminin subunit alpha-5, human; chain told by the isoform's name; laminin subunit beta-2, human; laminin subunit gamma-1, human; also called laminin isoform-521; source: bought: BioLamina (recombinant human, >95% purity); copies: + +

[9] = target: T9, FGF-2 (human, UniProt P09038 143-288); assay: ELISA; plates coated with laminin peptide (10 µg/mL by the legend, 1 μg/mL by the methods); 1 μg/mL GF added; bound GF detected with an antibody for each GF; BSA-coated wells as control
T9 construct: fibroblast growth factor 2, human, bought in its mature form; source: bought: PeproTech; produced in Escherichia coli

[10] = target: T10, platelet-derived growth factor PDGF-BB (human, UniProt P01127 82-190); assay: as above
T10 construct: platelet-derived growth factor subunit B, human, bought in its mature form; a homodimer by its name; source: bought: PeproTech; produced in Escherichia coli

[11] = target: T3, recombinant laminin LAMA3_(2928–3150) …; assay: ELISA; plates coated with 1 μg/mL recombinant laminin LG domain; 1 μg/mL GF added; bound GF detected with an antibody for each GF; BSA-coated wells as control
[12] = target: T5, recombinant human laminin-111; assay: ELISA; plates coated with 10 μg/mL laminin isoform; 1 μg/mL GF for 60 min at RT in the absence or presence of 10 μM heparin; bound GF detected with an antibody for each GF
[13] = target: T6, recombinant human laminin-211; assay: as above
[14] = target: T8, recombinant human laminin-521; assay: SPR; laminin-521 immobilised by amine coupling on a C1 chip (~2000 RU); GF flown at 20 μL/min in 0.01 M HEPES pH 7.4, 0.15 M NaCl, 0.005% surfactant P20; Langmuir binding kinetics

T9 sequence (P09038 143-288): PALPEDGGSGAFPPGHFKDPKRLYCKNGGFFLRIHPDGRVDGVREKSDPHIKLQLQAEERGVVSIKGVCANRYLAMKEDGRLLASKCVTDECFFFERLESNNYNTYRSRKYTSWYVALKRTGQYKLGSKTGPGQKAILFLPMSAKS
T10 sequence (P01127 82-190): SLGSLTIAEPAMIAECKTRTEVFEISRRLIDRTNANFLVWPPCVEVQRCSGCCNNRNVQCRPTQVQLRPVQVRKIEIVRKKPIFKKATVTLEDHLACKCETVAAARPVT
T4 sequence (P34741 19-144): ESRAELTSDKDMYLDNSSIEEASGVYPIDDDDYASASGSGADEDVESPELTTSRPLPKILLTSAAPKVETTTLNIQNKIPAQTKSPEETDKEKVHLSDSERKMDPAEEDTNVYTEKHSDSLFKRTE

| Binder | binding result [1] | binding result [5] | binding result [6] | binding result [7] | binding result [8] | binding result [9] | further results |
| --- | --- | --- | --- | --- | --- | --- | --- |
| TPGLGPRGLQATARKASRRSRQPARHPACML (peptide, UniProt O15230 3300-3330, looked up, laminin subunit alpha-5, human, residues 3300-3330, from the LG3-LG4 linker; source: synthetic peptide (Genscript)) [laminin peptide LAMA5_(3300–3330)] | binds | – | – | – | – | – | binding result [2]: binds; binding result [3]: binds; binding result [4]: binds |
| BMP-2 (ligand, UniProt P12643 283-396, looked up, bone morphogenetic protein 2, bought in its mature form; source: bought: PeproTech; produced in Escherichia coli) QAKHKQRKRLKSSCKRHPLYVDFSDVGWNDWIVAPPGYHAFYCHGECPFPLADHLNSTNHAIVQTLVNSVNSKIPKACCVPTELSAISMLYLDENEKVVLKNYQDMVVEGCGCR | – | binds | binds | binds | binds | – | – |
| PPFLMLLKGSTRFNKTKTFR (peptide, UniProt Q16787 2932-2951, looked up, laminin subunit alpha-3, human, residues 2932-2951, from the LG3-LG4 linker; source: synthetic peptide (Genscript)) [laminin peptide LAMA3_(2932–2951)] | – | – | – | – | – | binds | – |
| TLPDVGLELEVR (peptide, UniProt O15230 3539-3550, looked up, laminin subunit alpha-5, human, residues 3539-3550; source: synthetic peptide (Genscript)) [laminin peptide LAMA5_(3539–3550)] | binds | – | – | – | – | binds | binding result [10]: binds |
| NT-3 (ligand, UniProt P20783 139-257, looked up, neurotrophin-3, bought in its mature form; also called neurotrophin NT-3; source: bought: PeproTech; produced in Escherichia coli) YAEHKSHRGEYSVCDSESLWVTDKSSAIDIRGHQVTVLGEIKTGNSPVKQYFYETRCKEARPVKNGCRGIDDKHWNSQCKTSQTYVRALTSENNKLVGWRWIRIDTSCVCALSRKIGRT | – | binds | binds | binds | binds | – | – |
| FGF-7 (ligand, UniProt P21781 32-194, looked up, fibroblast growth factor 7, bought in its mature form; source: bought: PeproTech; produced in Escherichia coli) CNDMTPEQMATNVNCSSPERHTRSYDYMEGGDIRVRRLFCRTQWYLRIDKRGKVKGTQEMKNNYNIMEIRTVAVGIVAIKGVESEFYLAMNKEGKLYAKKECNEDCNFKELILENHYNTYASAKWTHNGGEMFVALNQKGIPVRGKKTKKEQKTAHFLPMAIT | – | binds | binds | binds | binds | – | – |
| FGF-18 (ligand, UniProt O76093 28-207, looked up, fibroblast growth factor 18, bought in its mature form; source: bought: PeproTech; produced in Escherichia coli) EENVDFRIHVENQTRARDDVSRKQLRLYQLYSRTSGKHIQVLGRRISARGEDGDKYAQLLVETDTFGSQVRIKGKETEFYLCMNRKGKLVGKPDGTSKECVFIEKVLENNYTALMSAKYSGWYVGFTKKGRPRKGPKTRENQQDVHFMKRYPKGQPELQKPFKYTTVTKRSRRIRPTHPA | – | binds | binds | binds | binds | – | – |
| RQRSRPGRWHKVSVRWEKNR (peptide, UniProt O15230 3417-3436, looked up, laminin subunit alpha-5, human, residues 3417-3436; source: synthetic peptide (Genscript)) [laminin peptide LAMA5_(3417–3436)] | binds | – | – | – | – | binds | binding result [10]: binds; binding result [2]: binds; binding result [3]: binds; binding result [4]: binds |
| BMP-3 (ligand, UniProt P12645 363-472, looked up, bone morphogenetic protein 3, bought in its mature form; source: bought: PeproTech; produced in Escherichia coli) QWIEPRNCARRYLKVDFADIGWSEWIISPKSFDAYYCSGACQFPMPKSLKPSNHATIQSIVRAVGVVPGIPEPCCVPEKMSSLSILFFDENKNVVLKVYPNMTVESCACR | – | binds | binds | binds | binds | – | – |
| B1 | – | – | – | – | – | – | binding result [11]: binds; binding result [12]: binds; binding result [13]: binds; Kd [14]: 12.9 nM |
| FGF-10 (ligand, UniProt O15520 38-208, looked up, fibroblast growth factor 10, bought in its mature form; source: bought: PeproTech; produced in Escherichia coli) QALGQDMVSPEATNSSSSSFSSPSSAGRHVRSYNHLQGDVRWRKLFSFTKYFLKIEKNGKVSGTKKENCPYSILEITSVEIGVVAVKAINSNYYLAMNKKGKLYGSKEFNNDCKLKERIEENGYNTYASFNWQHNGRQMYVALNGKGAPRRGQKTRRKNTSAHFLPMVVHS | – | binds | binds | binds | binds | – | – |
| RLVFALGTDGKKLRIKSKEKCNDGK (peptide, UniProt Q16787 3043-3067, looked up, laminin subunit alpha-3, human, residues 3043-3067; also called laminin HBD peptide; source: synthetic peptide (Genscript)) [laminin peptide LAMA3_(3043–3067)] | binds | – | – | – | – | binds | binding result [10]: binds; binding result [2]: binds; binding result [3]: binds; binding result [4]: binds |
